Assay results: patent US20120219562A1

target: human interleukin 12 (recombinant human IL-12, p70 heterodimer) (human) (UniProt P29459); test: cell-based or functional assay
Sequence (P29459 23-219, chain 1 of 2): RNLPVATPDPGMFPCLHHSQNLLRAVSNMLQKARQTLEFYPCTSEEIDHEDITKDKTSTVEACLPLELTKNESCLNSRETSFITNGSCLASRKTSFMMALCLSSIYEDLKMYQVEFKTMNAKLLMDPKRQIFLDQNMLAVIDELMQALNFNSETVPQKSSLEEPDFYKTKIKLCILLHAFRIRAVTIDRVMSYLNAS
Sequence (P29460 23-328, chain 2 of 2, further chain): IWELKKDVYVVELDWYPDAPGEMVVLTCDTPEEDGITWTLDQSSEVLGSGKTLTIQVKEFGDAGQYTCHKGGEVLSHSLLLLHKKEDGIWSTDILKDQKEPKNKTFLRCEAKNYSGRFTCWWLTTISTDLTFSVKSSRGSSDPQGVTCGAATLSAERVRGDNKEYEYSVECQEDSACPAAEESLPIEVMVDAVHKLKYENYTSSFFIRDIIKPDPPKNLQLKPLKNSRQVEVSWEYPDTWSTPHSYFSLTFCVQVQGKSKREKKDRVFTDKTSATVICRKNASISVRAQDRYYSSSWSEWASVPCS

**Q.** For Y61-L94N (antibody), which PHA assay IC50 is on record?
**A.** The PHA assay IC50 was 80 pM.

**Q.** With Y61-L94F (antibody) as the substance, how does the PHA assay IC50 read?
**A.** Its PHA assay IC50 is 60 pM.

target: human interleukin 12 (p70 heterodimer of p35 and p40) (human) (UniProt P29459); test: SPR (BIAcore), off-rate
Sequence (P29459 23-219, chain 1 of 2): as the sequence (P29459 23-219, chain 1 of 2) above
Sequence (P29460 23-328, chain 2 of 2, further chain): as the sequence (P29460 23-328, chain 2 of 2, further chain) above

**Q.** With “SEQ ID NO: 403 (Y61, F at H58) (antibody)” as the substance, how does the koff read?
**A.** Its koff is 0.000794 s⁻¹.

**Q.** For “SEQ ID NO: 431 (Y61, N at H97) (antibody)”, which koff is on record?
**A.** Its koff is 0.00221 s⁻¹.

**Q.** How did the koff turn out when “SEQ ID NO: 437 (Y61, W at H97) (antibody)” was run?
**A.** The koff was 0.00239 s⁻¹.

**Q.** How did the koff turn out when “SEQ ID NO: 424 (Y61, P at H96) (antibody)” was run?
**A.** The koff was 0.00129 s⁻¹.

**Q.** “SEQ ID NO: 436 (Y61, P at H97) (antibody)” was tested. Which koff did it give?
**A.** The koff was 0.003 s⁻¹.

**Q.** Which koff does the source give for “SEQ ID NO: 394 (Y61, F at H56) (antibody)” here?
**A.** Its koff is 0.000345 s⁻¹.

**Q.** How did the koff turn out when “SEQ ID NO: 426 (Y61, D at H97) (antibody)” was run?
**A.** The koff was 0.00202 s⁻¹.

**Q.** “SEQ ID NO: 445 (Y61, I at H98) (antibody)” was tested. Which koff did it give?
**A.** The koff was 0.000343 s⁻¹.

**Q.** For “SEQ ID NO: 386 (Y61, H at H56) (antibody)”, which koff is on record?
**A.** The koff was 0.00042 s⁻¹.

**Q.** For “SEQ ID NO: 462 (Y61, T at H102) (antibody)”, which koff is on record?
**A.** Its koff is 0.000333 s⁻¹.

**Q.** How did the koff turn out when Y61 with H31S→E (antibody) was run?
**A.** The koff was 0.000219 s⁻¹.

**Q.** How did the koff turn out when “SEQ ID NO: 421 (Y61, M at H96) (antibody)” was run?
**A.** The koff was 0.00204 s⁻¹.

**Q.** Which koff does the source give for “SEQ ID NO: 407 (Y61, K at H95) (antibody)” here?
**A.** Its koff is 0.00228 s⁻¹.

**Q.** With “SEQ ID NO: 412 (Y61, P at H95) (antibody)” as the substance, how does the koff read?
**A.** Its koff is 0.00471 s⁻¹.

**Q.** “SEQ ID NO: 455 (Y61, V at H101) (antibody)” was tested. Which koff did it give?
**A.** Its koff is 0.00163 s⁻¹.

**Q.** “SEQ ID NO: 458 (Y61, H at H102) (antibody)” was tested. Which koff did it give?
**A.** The koff was 0.00018 s⁻¹.

**Q.** With “SEQ ID NO: 429 (Y61, H at H97) (antibody)” as the substance, how does the koff read?
**A.** The koff was 0.00191 s⁻¹.

**Q.** With “SEQ ID NO: 385 (Y61, Y at H56) (antibody)” as the substance, how does the koff read?
**A.** Its koff is 0.00039 s⁻¹.

**Q.** Which koff does the source give for “SEQ ID NO: 464 (Y61, A at H102) (antibody)” here?
**A.** Its koff is 0.000382 s⁻¹.

**Q.** Y61 with L50→Y (antibody) was tested. Which koff did it give?
**A.** The koff was 0.000174 s⁻¹.

**Q.** For “SEQ ID NO: 466 (Y61, I at H102) (antibody)”, which koff is on record?
**A.** The koff was 0.000996 s⁻¹.

**Q.** “SEQ ID NO: 409 (Y61, T at H95) (antibody)” was tested. Which koff did it give?
**A.** Its koff is 0.00202 s⁻¹.

**Q.** For “SEQ ID NO: 459 (Y61, K at H102) (antibody)”, which koff is on record?
**A.** Its koff is 0.000405 s⁻¹.

**Q.** How did the koff turn out when “SEQ ID NO: 428 (Y61, Y at H97) (antibody)” was run?
**A.** The koff was 0.00273 s⁻¹.

**Q.** For “SEQ ID NO: 440 (Y61, R at H98) (antibody)”, which koff is on record?
**A.** Its koff is 0.00034 s⁻¹.

**Q.** Which koff does the source give for “SEQ ID NO: 435 (Y61, I at H97) (antibody)” here?
**A.** Its koff is 0.00208 s⁻¹.

**Q.** For “SEQ ID NO: 434 (Y61, A at H97) (antibody)”, which koff is on record?
**A.** The koff was 0.00143 s⁻¹.

**Q.** “SEQ ID NO: 465 (Y61, L at H102) (antibody)” was tested. Which koff did it give?
**A.** The koff was 0.000956 s⁻¹.

**Q.** How did the koff turn out when “SEQ ID NO: 401 (Y61, I at H58) (antibody)” was run?
**A.** Its koff is 0.000657 s⁻¹.

**Q.** “SEQ ID NO: 400 (Y61, L at H58) (antibody)” was tested. Which koff did it give?
**A.** The koff was 0.00073 s⁻¹.

**Q.** For “SEQ ID NO: 399 (Y61, V at H58) (antibody)”, which koff is on record?
**A.** The koff was 0.000524 s⁻¹.

**Q.** How did the koff turn out when “SEQ ID NO: 468 (Y61, W at H102) (antibody)” was run?
**A.** The koff was 0.000235 s⁻¹.

**Q.** For “SEQ ID NO: 438 (Y61, F at H97) (antibody)”, which koff is on record?
**A.** Its koff is 0.0018 s⁻¹.

**Q.** How did the koff turn out when “SEQ ID NO: 433 (Y61, G at H97) (antibody)” was run?
**A.** The koff was 0.00229 s⁻¹.

**Q.** With “SEQ ID NO: 392 (Y61, I at H56) (antibody)” as the substance, how does the koff read?
**A.** The koff was 0.000169 s⁻¹.

**Q.** How did the koff turn out when “SEQ ID NO: 451 (Y61, R at H101) (antibody)” was run?
**A.** The koff was 0.0011 s⁻¹.

**Q.** How did the koff turn out when “SEQ ID NO: 453 (Y61, G at H101) (antibody)” was run?
**A.** The koff was 0.00375 s⁻¹.

**Q.** “SEQ ID NO: 415 (Y61, C at H96) (antibody)” was tested. Which koff did it give?
**A.** The koff was 0.000242 s⁻¹.

**Q.** How did the koff turn out when “SEQ ID NO: 452 (Y61, N at H101) (antibody)” was run?
**A.** Its koff is 0.00223 s⁻¹.

**Q.** For “SEQ ID NO: 441 (Y61, T at H98) (antibody)”, which koff is on record?
**A.** The koff was 0.000227 s⁻¹.

**Q.** How did the koff turn out when “SEQ ID NO: 423 (Y61, I at H96) (antibody)” was run?
**A.** Its koff is 0.00208 s⁻¹.

**Q.** For “SEQ ID NO: 402 (Y61, P at H58) (antibody)”, which koff is on record?
**A.** The koff was 0.000628 s⁻¹.

**Q.** For “SEQ ID NO: 413 (Y61, F at H95) (antibody)”, which koff is on record?
**A.** Its koff is 0.00514 s⁻¹.

**Q.** With “SEQ ID NO: 398 (Y61, N at H58) (antibody)” as the substance, how does the koff read?
**A.** Its koff is 0.000831 s⁻¹.

**Q.** With “SEQ ID NO: 442 (Y61, A at H98) (antibody)” as the substance, how does the koff read?
**A.** Its koff is 0.000673 s⁻¹.

**Q.** With “SEQ ID NO: 405 (Y61, S at H95) (antibody)” as the substance, how does the koff read?
**A.** Its koff is 0.00193 s⁻¹.

**Q.** With “SEQ ID NO: 396 (Y61, S at H58) (antibody)” as the substance, how does the koff read?
**A.** The koff was 0.000941 s⁻¹.

**Q.** “SEQ ID NO: 454 (Y61, A at H101) (antibody)” was tested. Which koff did it give?
**A.** Its koff is 0.00106 s⁻¹.

**Q.** For “SEQ ID NO: 467 (Y61, P at H102) (antibody)”, which koff is on record?
**A.** Its koff is 0.00181 s⁻¹.

**Q.** How did the koff turn out when “SEQ ID NO: 457 (Y61, S at H102) (antibody)” was run?
**A.** Its koff is 0.000325 s⁻¹.

**Q.** “SEQ ID NO: 456 (Y61, I at H101) (antibody)” was tested. Which koff did it give?
**A.** Its koff is 0.00162 s⁻¹.

**Q.** “SEQ ID NO: 460 (Y61, R at H102) (antibody)” was tested. Which koff did it give?
**A.** Its koff is 0.000575 s⁻¹.

**Q.** How did the koff turn out when “SEQ ID NO: 390 (Y61, M at H56) (antibody)” was run?
**A.** Its koff is 0.000383 s⁻¹.

**Q.** “SEQ ID NO: 410 (Y61, A at H95) (antibody)” was tested. Which koff did it give?
**A.** Its koff is 0.0015 s⁻¹.

**Q.** Which koff does the source give for “SEQ ID NO: 411 (Y61, L at H95) (antibody)” here?
**A.** The koff was 0.00147 s⁻¹.

**Q.** For “SEQ ID NO: 414 (Y61, D at H96) (antibody)”, which koff is on record?
**A.** The koff was 0.00224 s⁻¹.

**Q.** “SEQ ID NO: 416 (Y61, H at H96) (antibody)” was tested. Which koff did it give?
**A.** Its koff is 0.000237 s⁻¹.

**Q.** “SEQ ID NO: 395 (Y61, E at H58) (antibody)” was tested. Which koff did it give?
**A.** Its koff is 0.000416 s⁻¹.

**Q.** How did the koff turn out when “SEQ ID NO: 448 (Y61, S at H101) (antibody)” was run?
**A.** The koff was 0.000449 s⁻¹.

**Q.** With “SEQ ID NO: 389 (Y61, G at H56) (antibody)” as the substance, how does the koff read?
**A.** Its koff is 0.000272 s⁻¹.

**Q.** How did the koff turn out when “SEQ ID NO: 443 (Y61, V at H98) (antibody)” was run?
**A.** Its koff is 0.000293 s⁻¹.

**Q.** “SEQ ID NO: 469 (Y61, F at H102) (antibody)” was tested. Which koff did it give?
**A.** The koff was 0.000318 s⁻¹.

**Q.** “SEQ ID NO: 450 (Y61, H at H101) (antibody)” was tested. Which koff did it give?
**A.** The koff was 0.00327 s⁻¹.

**Q.** Which koff does the source give for “SEQ ID NO: 404 (Y61, E at H95) (antibody)” here?
**A.** The koff was 0.00231 s⁻¹.

**Q.** “SEQ ID NO: 425 (Y61, W at H96) (antibody)” was tested. Which koff did it give?
**A.** Its koff is 0.00197 s⁻¹.

**Q.** For “SEQ ID NO: 391 (Y61, L at H56) (antibody)”, which koff is on record?
**A.** Its koff is 0.000264 s⁻¹.

**Q.** “SEQ ID NO: 417 (Y61, R at H96) (antibody)” was tested. Which koff did it give?
**A.** Its koff is 0.000982 s⁻¹.

**Q.** For “SEQ ID NO: 463 (Y61, G at H102) (antibody)”, which koff is on record?
**A.** The koff was 0.000692 s⁻¹.

**Q.** Which koff does the source give for “SEQ ID NO: 388 (Y61, T at H56) (antibody)” here?
**A.** The koff was 0.000235 s⁻¹.

**Q.** How did the koff turn out when “SEQ ID NO: 393 (Y61, P at H56) (antibody)” was run?
**A.** Its koff is 0.000299 s⁻¹.
